# Results from the FLAb antibody collection (doi:10.1101/2023.12.08.570889).
# Where a chain is given by its changes, count along the chain named.
# B1: unnamed (protein)
# chain 1: QMQLVESGGGVVQPGRSLRLSCAASGFTFSTYAMHWVRQAPGKGLEWVAVIWYDGSNKHYADSVKGRFTITRDNSKNTLNLQMNSLRAEDTAVYYCARAPRYDEDYEAFDVWGQGTMVTVSS
# chain 2: SYVLTQPPSVSVAPGQTARITCGGNNLGSKSVHWYQQKPGQAPVLVVYDDSDRPSWIPERFSGSNSGNTATLTISRGEAGDEADYYCQVWDSSSDHVVFGGGTKLTVL
# B2: unnamed (protein)
# chain 1: B1 chain 1 with Y32F, E104D, D105E
# chain 2: B1 chain 2
# B3: unnamed (protein)
# chain 1: B1 chain 1 with D103Y, E104Y, D105Y
# chain 2: B1 chain 2
# B4: unnamed (protein)
# chain 1: B1 chain 1 with Y32F
# chain 2: B1 chain 2
# B5: unnamed (protein)
# chain 1: B1 chain 1 with D103Y, D105Y, Y106W
# chain 2: B1 chain 2
# B6: unnamed (protein)
# chain 1: B1 chain 1 with E104D, D105A
# chain 2: B1 chain 2
# B7: unnamed (protein)
# chain 1: B1 chain 1 with Y32F, D105Y, Y106V
# chain 2: B1 chain 2
# B8: unnamed (protein)
# chain 1: B1 chain 1 with Y32F, D105E
# chain 2: B1 chain 2
# B9: unnamed (protein)
# chain 1: B1 chain 1 with Y32F, A99S, D105Y, Y106L
# chain 2: B1 chain 2
# B10: unnamed (protein)
# chain 1: B1 chain 1 with T31S, E104D, D105Y
# chain 2: B1 chain 2
# B11: unnamed (protein)
# chain 1: B1 chain 1 with E104D, D105Y, Y106L
# chain 2: B1 chain 2
# B12: unnamed (protein)
# chain 1: B1 chain 1 with Y32F, E104D, D105Y, Y106L
# chain 2: B1 chain 2
# B13: unnamed (protein)
# chain 1: B1 chain 1 with A99S, E104W, D105Y
# chain 2: B1 chain 2
# B14: unnamed (protein)
# chain 1: B1 chain 1 with Y32F, D103Y, D105Y, Y106W
# chain 2: B1 chain 2
# B15: unnamed (protein)
# chain 1: B1 chain 1 with T31S, Y32F, E104D, D105Y
# chain 2: B1 chain 2
# B16: unnamed (protein)
# chain 1: B1 chain 1 with Y32F, A99S, E104D, D105Y
# chain 2: B1 chain 2
# B17: unnamed (protein)
# chain 1: B1 chain 1 with Y32F, A99S, D105Y, Y106W
# chain 2: B1 chain 2
# B18: unnamed (protein)
# chain 1: B1 chain 1 with E104Y, D105Y, Y106W
# chain 2: B1 chain 2
# B19: unnamed (protein)
# chain 1: B1 chain 1 with Y32F, A99S, E104W, D105Y
# chain 2: B1 chain 2
# Target: TSLP, Q969D9
# Test: Kd (SPR)
row,Kd [nM],Binder
1,184,B1
2,180,B2
3,152,B3
4,148,B4
5,285,B5
6,370,B6
7,129,B7
8,240,B8
9,117,B9
10,153,B10
11,152,B11
12,159,B12
13,96.3,B13
14,190,B14
15,136,B15
16,172,B16
17,31.6,B17
18,151,B18
19,126,B19
